Data: US20140348785A1

Target: biotinylated gp41 MPER peptide RRR-(656-683)-RRK-biotin (HIV-1)
Assay: SPR: biotinylated MPER peptide on an SA chip, Fab as analyte, 1:1 Langmuir fit

For 4E10 Fab, the Kd was 0.74 nM.

For 2F5 Fab, the Kd was 3.8 nM.
